Values quoted from earlier work, collected in article PMC9686918.

Molecular target: myeloperoxidase (Homo sapiens) (UniProt P05164)
Sequence (P05164 165-273): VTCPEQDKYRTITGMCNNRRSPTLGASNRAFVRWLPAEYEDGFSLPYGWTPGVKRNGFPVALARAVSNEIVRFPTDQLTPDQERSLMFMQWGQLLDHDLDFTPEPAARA

Kd: 20 µM
Substance: human serum albumin (from UniProt P02768)
